Measurements: the supplement of paper PMC7125110
± gives the standard error. For part of these data: Variants at the floor of the assay were thinned out.

B1: glmS ribozyme (parent)
chain: AUAAAAGCGCCAGAACUACAGAAAUGUAGUUGACGAGGAGGAGGUUUAUCGAAUUUUCGGCGGAUGCCUCCAAA

Experiments:
Settings in all cases: with glucosamine-6-phosphate
glucosamine-6-phosphate [1] = variants of: B1; assay: kcat; higher = faster cleavage; RNA array
Outline: (§1)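 Tiles bearing barcoded ribozyme variants, transcribed in situ by E. coli RNA polymerase on sequenced MiSeq chips, were imaged over ~14 h at 37 °C using a hybridised Cy3 probe. Glucosamine-6-phosphate was supplied at 40 μM to 10 mM in HEPES/KCl/Mg(OAc)2 buffer. kobs came from one- or two-exponential decay fits to normalised per-tile medians, and weighted Michaelis–Menten fits then provided kcat and KM.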

glucosamine-6-phosphate [2] = variants of: B1; assay: self-cleavage kobs at 40 uM GlcN6P; higher = faster cleavage; RNA array
Outline: as §1

glucosamine-6-phosphate [3] = variants of: B1; assay: self-cleavage kobs at 10000 uM GlcN6P; higher = faster cleavage; RNA array
Outline: as §1

glucosamine-6-phosphate [4] = variants of: B1; assay: self-cleavage kobs at 640 uM GlcN6P; higher = faster cleavage; RNA array
Outline: as §1

glucosamine-6-phosphate [5] = variants of: B1; assay: KM; higher = weaker cofactor use; RNA array
Outline: as §1

glucosamine-6-phosphate [6] = variants of: B1; assay: self-cleavage kobs at 2500 uM GlcN6P; higher = faster cleavage; RNA array
Outline: as §1

glucosamine-6-phosphate [7] = variants of: B1; assay: self-cleavage kobs at 160 uM GlcN6P; higher = faster cleavage; RNA array
Outline: as §1

| Variant | kcat (glucosamine-6-phosphate [1]) [s⁻¹] | self-cleavage kobs at 40 uM GlcN6P (glucosamine-6-phosphate [2]) [s⁻¹] | self-cleavage kobs at 10000 uM GlcN6P (glucosamine-6-phosphate [3]) [s⁻¹] | self-cleavage kobs at 640 uM GlcN6P (glucosamine-6-phosphate [4]) [s⁻¹] | KM (glucosamine-6-phosphate [5]) [µM] | self-cleavage kobs at 2500 uM GlcN6P (glucosamine-6-phosphate [6]) [s⁻¹] | self-cleavage kobs at 160 uM GlcN6P (glucosamine-6-phosphate [7]) [s⁻¹] |
| --- | --- | --- | --- | --- | --- | --- | --- |
| C58U C67A | 3.03e-05 ± 4.9e-06 | < 1e-05 | 3.07e-05 ± 7.8e-06 | – | – | – | – |
| C61G G62C A64G U65A G66U C67G | 1.06e-05 ± 1.8e-06 | – | < 1e-05 | < 1e-05 | – | – | – |
| U65C C67A | 0.000111 ± 9.5e-06 | – | 0.000106 ± 1.6e-05 | 6e-05 ± 1.4e-05 | 672 ± 220 | 7.82e-05 ± 2.1e-05 | – |
| A64U C70U | 0.00015 ± 1.9e-05 | – | 0.000139 ± 9.8e-06 | 5.13e-05 ± 5.8e-06 | 1510 ± 510 | 7.86e-05 ± 8.2e-06 | – |
| U57A A64U | < 1e-05 | < 1e-05 | < 1e-05 | – | – | – | – |
| U56A C58U | 0.00027 ± 2.5e-05 | – | 0.000208 ± 3.2e-05 | 5.03e-05 ± 1.6e-05 | 3350 ± 650 | 0.000108 ± 1.9e-05 | – |
| G66C C71U | 0.000716 ± 9.4e-05 | – | 0.000631 ± 0.00011 | 0.000335 ± 5e-05 | 975 ± 220 | 0.000494 ± 9.6e-05 | 9.54e-05 ± 1.7e-05 |
| U65A C71U | 0.00196 ± 0.00076 | 0.000139 ± 2.2e-05 | 0.00301 ± 0.00053 | 0.00117 ± 0.00012 | – | 0.0011 ± 0.0002 | 0.000277 ± 4.1e-05 |
